Measured values as given in PMC6602413.

Columns and labels:
[1] = molecular target: T1, Strep-RapZ (Escherichia coli (K-12?)) (UniProt P0A894); assay: EMSA; settings: 10 mM Tris-HCl pH 7.0, 100 mM KCl, 10 mM MgCl2, 1 ug yeast tRNA per 10 ul, 30 min at 30 C (competition 15 + 15 min); native 6% PAGE at 4 C
T1 sequence: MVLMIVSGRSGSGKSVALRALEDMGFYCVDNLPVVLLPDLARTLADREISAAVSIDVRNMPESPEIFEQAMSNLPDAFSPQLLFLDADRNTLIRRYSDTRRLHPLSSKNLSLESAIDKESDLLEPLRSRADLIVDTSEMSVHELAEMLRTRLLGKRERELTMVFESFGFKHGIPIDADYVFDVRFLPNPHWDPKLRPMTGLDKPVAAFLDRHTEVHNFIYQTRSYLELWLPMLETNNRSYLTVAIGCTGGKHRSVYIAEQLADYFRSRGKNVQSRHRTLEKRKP

[2] = molecular target: T1, Strep-RapZ (Escherichia coli (K-12?)); assay: competition; settings: 10 mM Tris-HCl pH 7.0, 100 mM KCl, 10 mM MgCl2, 1 ug yeast tRNA per 10 ul, 30 min at 30 C (competition 15 + 15 min); native 6% PAGE at 4 C

Row | Sequence | binding [1] | binding [2]
1 | GGGAGAGUAGAUGCUCAUUCCAUCUCUUAUGUUCGCCUUAGUGCCUCAUAAACUCCGGAAUGACGCAGAGCCGUUUACGGUGCUUAUCGUCCACUGACAGAUGUCGCUUAUGCCUCAUCAGACACCAUGGACACAACGUUGAGUGAAGCACCCACUUGUUGUCAUACAGACCUGUUUUAACGCCUGCUCCGUAAUAAGAGCAGGCGUUUUUUU [GlmZ full-length] | binds | binds
2 | GGGAGAGUAGAUGCUCAUUCCAUCUCUUAUGUUCGCCUUAGUGCCUCAUAAACUCCGGAAUGACGCAGAGCCGUUUACGGUGCUUAUCGUCCACUGACAGAUGUCGCUUAUGCCUCAUCAGACACCAUGGACACAACGUUGAGUGAAGCACCCACUUGUUG [GlmZ* (processed GlmZ)] | binds | binds
